Test results as given in patent US8158376B2, “Bisubstrate fluorescent probe binding to protein kinases” (University of Tartu, priority 2006, dated 2012).
Where two headings read alike, the source gives them in different places.

Key:
Test in all cases: Kinase selectivity panel
Format in all cases: biochemical
CSK = CSK (Homo sapiens, UniProt P41240); details: read-out: residual activity (%) CSK
Method: (§1) The panel of kinases included all 52 kinases available for testing.
(§2) The assay of protein kinases was performed at 30° C. as described previously [Davies et al., Biochem. J. 351 (2000) 95; Murray et al., Biochem. J. 384 (2004) 477].

MAPKAP-K3 = MAPKAP-K3 (Homo sapiens, UniProt Q16644); details: read-out: residual activity (%) MAPKAP-K3
MAPKAP-K3, sequence (Q16644 whole entry, species assumed): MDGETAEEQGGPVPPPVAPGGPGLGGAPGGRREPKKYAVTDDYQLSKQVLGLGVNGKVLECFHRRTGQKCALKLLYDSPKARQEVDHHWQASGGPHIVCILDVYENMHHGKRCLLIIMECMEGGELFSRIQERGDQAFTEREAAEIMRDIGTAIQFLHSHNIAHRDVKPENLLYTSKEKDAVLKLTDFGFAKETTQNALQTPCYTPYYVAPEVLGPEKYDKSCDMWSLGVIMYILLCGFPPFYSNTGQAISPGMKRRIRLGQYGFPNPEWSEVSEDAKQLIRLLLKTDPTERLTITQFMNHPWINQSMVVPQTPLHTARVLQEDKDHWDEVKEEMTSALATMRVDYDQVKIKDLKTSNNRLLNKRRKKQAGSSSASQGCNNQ
Method: as §1, §2

MKK1 = MKK1 (Homo sapiens, UniProt Q02750); details: read-out: residual activity (%) MKK1
MKK1, sequence (Q02750 whole entry, species assumed): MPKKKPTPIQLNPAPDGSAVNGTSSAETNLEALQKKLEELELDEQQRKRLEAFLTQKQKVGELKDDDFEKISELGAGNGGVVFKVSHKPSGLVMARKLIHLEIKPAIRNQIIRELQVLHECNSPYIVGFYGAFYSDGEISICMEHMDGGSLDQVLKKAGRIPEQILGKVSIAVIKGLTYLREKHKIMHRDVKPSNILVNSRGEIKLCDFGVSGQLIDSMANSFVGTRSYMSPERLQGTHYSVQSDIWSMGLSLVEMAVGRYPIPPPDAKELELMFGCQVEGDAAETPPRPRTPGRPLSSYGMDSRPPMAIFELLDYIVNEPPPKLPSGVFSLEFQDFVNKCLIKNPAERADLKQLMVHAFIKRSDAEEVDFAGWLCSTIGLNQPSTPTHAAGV
Method: as §1, §2

CHK2 = CHK2 (Homo sapiens, UniProt O96017); details: read-out: residual activity (%) CHK2
Method: as §1, §2

MNK2 = MNK2 (Homo sapiens, UniProt Q9HBH9); details: read-out: residual activity (%) MNK2
Method: as §1, §2

JNK3 = JNK3 (Homo sapiens, UniProt P53779); details: read-out: residual activity (%) JNK3
JNK3, sequence (P53779 whole entry, species assumed): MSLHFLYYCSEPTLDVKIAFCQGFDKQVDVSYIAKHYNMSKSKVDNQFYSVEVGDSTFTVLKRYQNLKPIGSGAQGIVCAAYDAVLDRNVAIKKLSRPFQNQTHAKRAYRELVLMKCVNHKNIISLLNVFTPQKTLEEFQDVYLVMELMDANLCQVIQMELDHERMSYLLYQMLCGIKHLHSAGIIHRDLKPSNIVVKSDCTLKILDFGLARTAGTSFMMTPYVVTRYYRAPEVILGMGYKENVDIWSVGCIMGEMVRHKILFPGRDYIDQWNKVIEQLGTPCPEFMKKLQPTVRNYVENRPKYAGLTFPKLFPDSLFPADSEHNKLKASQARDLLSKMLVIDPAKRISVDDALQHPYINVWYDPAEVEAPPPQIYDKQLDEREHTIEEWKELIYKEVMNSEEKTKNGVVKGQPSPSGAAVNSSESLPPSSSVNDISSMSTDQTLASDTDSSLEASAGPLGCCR
Method: as §1, §2

PKBb = PKBb (Homo sapiens, UniProt P31751); details: read-out: residual activity (%) PKBb
PKBb, sequence (P31751 whole entry): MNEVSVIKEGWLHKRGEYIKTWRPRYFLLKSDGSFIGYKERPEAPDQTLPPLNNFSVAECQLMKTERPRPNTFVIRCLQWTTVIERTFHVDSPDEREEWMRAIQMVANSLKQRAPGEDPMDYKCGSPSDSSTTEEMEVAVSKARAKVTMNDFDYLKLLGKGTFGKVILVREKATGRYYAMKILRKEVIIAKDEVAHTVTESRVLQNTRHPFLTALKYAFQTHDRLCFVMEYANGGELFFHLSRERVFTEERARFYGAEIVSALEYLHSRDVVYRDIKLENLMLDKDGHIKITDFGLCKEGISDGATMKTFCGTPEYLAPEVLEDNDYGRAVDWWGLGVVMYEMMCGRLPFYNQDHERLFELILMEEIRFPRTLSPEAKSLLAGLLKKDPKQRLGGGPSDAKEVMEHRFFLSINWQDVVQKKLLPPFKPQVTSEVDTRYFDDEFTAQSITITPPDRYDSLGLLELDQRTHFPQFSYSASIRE
Method: as §1, §2

IKKb = target: T1, IKKb (Homo sapiens, UniProt O14920); details: read-out: residual activity (%) IKKb
T1 sequence (O14920 1-756): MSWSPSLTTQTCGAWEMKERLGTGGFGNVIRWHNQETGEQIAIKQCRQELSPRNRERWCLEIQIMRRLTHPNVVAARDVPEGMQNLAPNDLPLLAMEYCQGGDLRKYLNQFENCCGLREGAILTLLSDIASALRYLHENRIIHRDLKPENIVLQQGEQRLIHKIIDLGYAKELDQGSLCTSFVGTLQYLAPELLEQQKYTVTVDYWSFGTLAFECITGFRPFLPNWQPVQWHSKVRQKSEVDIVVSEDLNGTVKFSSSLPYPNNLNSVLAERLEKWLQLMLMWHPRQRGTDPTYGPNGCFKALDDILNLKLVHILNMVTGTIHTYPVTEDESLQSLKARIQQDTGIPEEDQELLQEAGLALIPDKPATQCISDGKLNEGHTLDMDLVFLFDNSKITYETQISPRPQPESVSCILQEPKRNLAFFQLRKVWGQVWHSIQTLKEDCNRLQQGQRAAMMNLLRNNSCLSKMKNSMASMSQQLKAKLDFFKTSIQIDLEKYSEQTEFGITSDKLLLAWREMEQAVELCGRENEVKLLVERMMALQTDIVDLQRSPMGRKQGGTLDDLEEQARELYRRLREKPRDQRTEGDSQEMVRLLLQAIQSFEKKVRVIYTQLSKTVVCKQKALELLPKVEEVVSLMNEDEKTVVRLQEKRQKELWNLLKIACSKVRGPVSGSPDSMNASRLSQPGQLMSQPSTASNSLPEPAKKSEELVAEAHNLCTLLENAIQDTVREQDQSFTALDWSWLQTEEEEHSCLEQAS
Method: as §1, §2

NEK2a = target: T2, NEK2a (Homo sapiens, UniProt P51955); details: read-out: residual activity (%) NEK2a
T2 sequence (P51955 1-445): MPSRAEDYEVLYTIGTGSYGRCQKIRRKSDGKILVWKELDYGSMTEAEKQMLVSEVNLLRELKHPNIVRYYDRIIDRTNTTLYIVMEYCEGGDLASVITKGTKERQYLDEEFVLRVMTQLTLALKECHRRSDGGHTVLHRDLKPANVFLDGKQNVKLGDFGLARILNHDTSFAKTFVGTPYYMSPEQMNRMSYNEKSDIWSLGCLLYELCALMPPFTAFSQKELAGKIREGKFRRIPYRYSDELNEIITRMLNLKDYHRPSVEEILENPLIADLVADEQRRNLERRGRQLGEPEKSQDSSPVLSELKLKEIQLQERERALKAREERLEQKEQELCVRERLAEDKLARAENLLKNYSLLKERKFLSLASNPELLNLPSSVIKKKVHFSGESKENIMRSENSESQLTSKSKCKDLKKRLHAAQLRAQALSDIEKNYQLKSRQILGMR
Method: as §1, §2

Aurora B = Aurora B (Homo sapiens, UniProt Q96GD4); details: read-out: residual activity (%) Aurora B
Aurora B, sequence (Q96GD4 whole entry): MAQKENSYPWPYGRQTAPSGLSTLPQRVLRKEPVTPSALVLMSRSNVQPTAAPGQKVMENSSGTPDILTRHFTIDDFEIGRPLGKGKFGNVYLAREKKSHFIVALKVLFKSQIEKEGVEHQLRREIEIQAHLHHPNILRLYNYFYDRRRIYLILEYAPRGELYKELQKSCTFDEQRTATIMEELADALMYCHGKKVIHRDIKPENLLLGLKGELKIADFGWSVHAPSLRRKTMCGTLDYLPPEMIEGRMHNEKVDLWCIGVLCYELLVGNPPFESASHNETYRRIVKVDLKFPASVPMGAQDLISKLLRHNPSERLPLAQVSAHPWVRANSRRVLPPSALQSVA
Method: as §1, §2

DYRK1a = DYRK1a (Homo sapiens, UniProt Q13627); details: read-out: residual activity (%) DYRK1a
Method: as §1, §2

Lck = Lck (Homo sapiens, UniProt P06239); details: read-out: residual activity (%) Lck
Lck, sequence (P06239 whole entry, species assumed): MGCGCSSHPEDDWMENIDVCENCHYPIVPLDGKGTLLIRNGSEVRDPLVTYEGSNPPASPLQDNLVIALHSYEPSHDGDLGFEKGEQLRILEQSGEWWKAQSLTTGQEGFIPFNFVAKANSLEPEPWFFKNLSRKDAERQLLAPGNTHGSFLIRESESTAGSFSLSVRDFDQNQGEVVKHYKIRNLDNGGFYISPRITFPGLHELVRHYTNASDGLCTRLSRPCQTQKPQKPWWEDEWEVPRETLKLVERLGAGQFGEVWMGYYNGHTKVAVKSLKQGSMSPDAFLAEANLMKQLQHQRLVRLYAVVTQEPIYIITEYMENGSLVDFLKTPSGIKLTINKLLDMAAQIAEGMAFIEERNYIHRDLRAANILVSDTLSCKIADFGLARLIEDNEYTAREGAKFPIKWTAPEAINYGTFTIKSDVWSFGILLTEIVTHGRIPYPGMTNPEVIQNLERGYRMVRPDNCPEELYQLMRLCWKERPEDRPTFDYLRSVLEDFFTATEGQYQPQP
Method: as §1, §2

MAPKAP-K2 = MAPKAP-K2 (Homo sapiens, UniProt P49137); details: read-out: residual activity (%) MAPKAP-K2
MAPKAP-K2, sequence (P49137 whole entry, species assumed): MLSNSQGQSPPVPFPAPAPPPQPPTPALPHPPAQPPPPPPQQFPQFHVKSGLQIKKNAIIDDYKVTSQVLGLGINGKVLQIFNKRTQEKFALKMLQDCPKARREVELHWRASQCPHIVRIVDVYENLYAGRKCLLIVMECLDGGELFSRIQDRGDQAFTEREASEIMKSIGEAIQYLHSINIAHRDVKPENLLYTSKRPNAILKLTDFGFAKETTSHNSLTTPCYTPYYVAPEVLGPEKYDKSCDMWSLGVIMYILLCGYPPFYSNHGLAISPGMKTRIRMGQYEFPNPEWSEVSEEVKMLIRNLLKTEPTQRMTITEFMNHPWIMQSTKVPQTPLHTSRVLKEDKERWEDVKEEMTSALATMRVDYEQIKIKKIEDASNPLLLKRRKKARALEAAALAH
Method: as §1, §2

CAMK-1 = CAMK-1 (Homo sapiens, UniProt Q14012); details: read-out: residual activity (%) CAMK-1
Method: as §1, §2

MAPKAP-K1b/rsk-2 = MAPKAP-K1b/rsk-2 (Homo sapiens, UniProt P51812); details: ATP 50 μM
MAPKAP-K1b/rsk-2, sequence (P51812 whole entry): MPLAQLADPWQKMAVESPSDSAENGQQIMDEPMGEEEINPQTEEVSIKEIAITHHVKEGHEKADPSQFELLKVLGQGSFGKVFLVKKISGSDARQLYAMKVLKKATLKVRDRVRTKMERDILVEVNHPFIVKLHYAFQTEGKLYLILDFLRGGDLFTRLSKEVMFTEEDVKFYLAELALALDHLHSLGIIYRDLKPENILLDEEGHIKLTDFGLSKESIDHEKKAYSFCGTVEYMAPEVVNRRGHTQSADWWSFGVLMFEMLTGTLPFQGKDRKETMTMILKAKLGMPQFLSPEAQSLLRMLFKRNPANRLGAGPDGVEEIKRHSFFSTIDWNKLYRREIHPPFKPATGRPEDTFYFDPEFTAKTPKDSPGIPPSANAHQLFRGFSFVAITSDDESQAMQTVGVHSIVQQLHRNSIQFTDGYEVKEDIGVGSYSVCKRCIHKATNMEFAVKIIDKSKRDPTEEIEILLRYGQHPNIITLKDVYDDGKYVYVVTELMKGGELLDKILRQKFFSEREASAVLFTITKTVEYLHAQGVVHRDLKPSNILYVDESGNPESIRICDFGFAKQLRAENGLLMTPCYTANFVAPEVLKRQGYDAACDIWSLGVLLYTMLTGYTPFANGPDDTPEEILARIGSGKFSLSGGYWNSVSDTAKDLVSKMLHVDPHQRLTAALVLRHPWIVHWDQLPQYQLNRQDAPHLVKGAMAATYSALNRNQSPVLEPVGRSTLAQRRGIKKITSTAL
Method: as §1, §2

PKCa = PKCa (Homo sapiens, UniProt P17252); details: read-out: residual activity (%) PKCa
Method: as §1, §2

CSK, sequence (P41240 whole entry, species assumed): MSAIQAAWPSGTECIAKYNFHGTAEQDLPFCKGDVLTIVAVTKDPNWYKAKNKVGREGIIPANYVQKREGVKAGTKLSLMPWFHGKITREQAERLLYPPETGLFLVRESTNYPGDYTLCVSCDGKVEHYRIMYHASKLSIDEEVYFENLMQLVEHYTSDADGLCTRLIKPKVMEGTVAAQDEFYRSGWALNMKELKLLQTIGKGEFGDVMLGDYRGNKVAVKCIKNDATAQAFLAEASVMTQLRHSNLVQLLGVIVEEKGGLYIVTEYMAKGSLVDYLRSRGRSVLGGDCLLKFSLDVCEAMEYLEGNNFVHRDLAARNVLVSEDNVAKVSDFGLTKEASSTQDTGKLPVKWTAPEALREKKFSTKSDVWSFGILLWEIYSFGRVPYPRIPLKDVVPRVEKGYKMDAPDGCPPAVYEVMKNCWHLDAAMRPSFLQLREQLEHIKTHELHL

N=C(N)NCCC[C@@H](NC(=O)[C@@H](CCCNC(=N)N)NC(=O)[C@@H](CCCNC(=N)N)NC(=O)[C@@H](CCCNC(=N)N)NC(=O)[C@@H](CCCNC(=N)N)NC(=O)[C@@H](CCCNC(=N)N)NC(=O)CCCCCNCCNS(=O)(=O)c1cccc2cnccc12)C(N)=O [Compound 26, H9-Hex(D-Arg)6-NH2]
remaining activity at 1 µM (CSK; inhibitor 1 μM, ATP 20 μM): 70%
remaining activity at 1 µM (MAPKAP-K3; inhibitor 1 μM, ATP 20 μM): 69%
remaining activity at 1 µM (MKK1; inhibitor 1 μM, ATP 5 μM): 84%
remaining activity at 1 µM (CHK2; inhibitor 1 μM, ATP 20 μM): 22%
remaining activity at 1 µM (MNK2; inhibitor 1 μM, ATP 50 μM): 31%
remaining activity at 1 µM (JNK3; inhibitor 1 μM, ATP 50 μM): 92%
remaining activity at 1 µM (PKBb; inhibitor 1 μM, ATP 50 μM): 3%
remaining activity at 1 µM (IKKb; inhibitor 1 μM, ATP 5 μM): 87%
remaining activity at 1 µM (NEK2a; inhibitor 1 μM, ATP 50 μM): 98%
remaining activity at 1 µM (Aurora B; inhibitor 1 μM, ATP 20 μM): 53%
remaining activity at 1 µM (DYRK1a; inhibitor 1 μM, ATP 50 μM): 69%
remaining activity at 1 µM (Lck; inhibitor 1 μM, ATP 50 μM): 88%
remaining activity at 1 µM (MAPKAP-K2; inhibitor 1 μM, ATP 20 μM): 80%
remaining activity at 1 µM (CAMK-1; inhibitor 1 μM, ATP 50 μM): < 10%
remaining activity at 1 µM (MAPKAP-K1b/rsk-2; inhibitor 1 μM, read-out: residual activity (%) MAPKAP-K1b/rsk-2): 2%
remaining activity at 1 µM (PKCa; inhibitor 1 μM, ATP 20 μM): 15%

N=C(N)NCCC[C@@H](NC(=O)[C@@H](CCCNC(=N)N)NC(=O)[C@@H](CCCNC(=N)N)NC(=O)[C@@H](CCCNC(=N)N)NC(=O)[C@@H](CCCNC(=N)N)NC(=O)[C@@H](CCCNC(=N)N)NC(=O)CCCCCNC(=O)[C@H]1O[C@@H](n2cnc3c(N)ncnc32)[C@H](O)[C@@H]1O)C(N)=O [Compound 5, AdcAhx(D-Arg)6-NH2]
remaining activity at 1 µM (CSK): 48%
remaining activity at 1 µM (MAPKAP-K3): 67%
remaining activity at 1 µM (MKK1): 77%
remaining activity at 1 µM (CHK2): 14%
remaining activity at 1 µM (MNK2): 99%
remaining activity at 1 µM (JNK3): 91%
remaining activity at 1 µM (PKBb): 3%
remaining activity at 1 µM (IKKb): 94%
remaining activity at 1 µM (NEK2a): 82%
remaining activity at 1 µM (Aurora B): 103%
remaining activity at 1 µM (DYRK1a): 72%
remaining activity at 1 µM (Lck): 70%
remaining activity at 1 µM (MAPKAP-K2): 85%
remaining activity at 1 µM (CAMK-1): 15%
residual activity (%) MAPKAP-K1b/rsk-2 (MAPKAP-K1b/rsk-2; inhibitor 1 μM): 12 (±0) %
remaining activity at 1 µM (MAPKAP-K1b/rsk-2; read-out: residual activity (%) MAPKAP-K1b/rsk-2, inhibitor 1 μM): 7 to 28%
remaining activity at 1 µM (PKCa): 31%
